The target of data set [1] is T1, EGFR, human recombinant, hIgG1-Fc tag (Sino Biological) (Homo sapiens, UniProt P00533 25-645). Description: thermofluorimetric analysis.
Data set [2] deals with T1, EGFR, human recombinant, hIgG1-Fc tag …. Put plainly: thermofluorimetric analysis. The source holds these as a separate data set.
Data set [3] has the same target. Description: flow cytometry, EGFR-coated microspheres.
Data set [4] has the same target. Description: thermofluorimetric analysis. The source holds these as a separate data set.

Read-outs that look alike come from different tables or passages of the source.

B1: NS-DNA (ssDNA)
DNA: CGACATCTTTAACCTAGCCCTTGTCAGTGCTCTATGACAAGGTGTGTAGACGACATCTAACCTAGC
Turning to B1, the binding result in data set [1] is “no binding”.

B2: KM4 (ssDNA)
DNA: CTTACCTCTTTCTCCCACCGCCCCAAACATAATTGGTATACCGCAACACAACGCACAACACACAACAATCAAT
With B2, the Kd in data set [2] is around 1 nM.

B3: KM4-FITC (ssDNA)
DNA: CTTACCTCTTTCTCCCACCGCCCCAAACATAATTGGTATACCGCAACACAACGCACAACACACAACAATCAAT
modifications: 5' AmMC6
As to B3, the equilibrium dissociation constant (Kd) in data set [3] was 46 nM.

B4: LINN2 (ssDNA)
DNA: CCGCTTTATTGTTAATTAAGTTTTATATTTCGCACAACACACAACAATCAATATC
Take B4: the binding result in data set [4] is “binds”.
